Data published in article PMC8706527.

Key:
[1] = molecular target: recombinant human FcγRIIIa-Phe (human) (UniProt P08637); assay: SPR
[2] = molecular target: recombinant human neonatal Fc receptor (rhFcRn) (human) (UniProt P55899); assay: SPR
Sequence of recombinant human neonatal Fc receptor (rhFcRn) (human) (P55899 whole entry, looked up, tested part not stated): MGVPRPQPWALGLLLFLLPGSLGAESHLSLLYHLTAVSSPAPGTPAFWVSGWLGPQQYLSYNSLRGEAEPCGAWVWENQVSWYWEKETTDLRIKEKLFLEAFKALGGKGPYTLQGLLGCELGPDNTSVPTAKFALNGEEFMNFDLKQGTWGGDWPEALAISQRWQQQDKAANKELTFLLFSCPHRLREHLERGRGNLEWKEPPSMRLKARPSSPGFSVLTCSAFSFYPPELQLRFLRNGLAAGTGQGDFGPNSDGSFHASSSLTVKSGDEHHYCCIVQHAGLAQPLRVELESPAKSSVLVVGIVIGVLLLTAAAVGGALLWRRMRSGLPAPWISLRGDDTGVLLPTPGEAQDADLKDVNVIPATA

Sequence of recombinant human FcγRIIIa-Phe (human) (P08637 17-208): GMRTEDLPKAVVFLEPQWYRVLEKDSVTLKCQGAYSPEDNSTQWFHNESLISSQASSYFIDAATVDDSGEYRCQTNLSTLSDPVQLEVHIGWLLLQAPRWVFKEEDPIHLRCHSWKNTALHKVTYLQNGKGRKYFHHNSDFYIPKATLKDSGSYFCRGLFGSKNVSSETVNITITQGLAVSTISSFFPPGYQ

Substance: wild type IgG1 (modified ZRC-3308 mAb with wild type Fc) (antibody)
- Kd [1]: 1.62 µM
- Kd [2]: 0.195 µM
- kon [2]: 986000 M⁻¹ s⁻¹
